The values that follow come from patent US20060280740A1.

In assay [1] the target is KIR2DL1 recombinant protein (entire extracellular domain, produced in E. coli, immobilized on Biacore chip) (human) (UniProt P43626). Nature of the assay: SPR competition, KIR2DL1 chip; competitor (second Ab) EB6 (self).
Assay [2] has the same target. Nature of the assay: SPR, KIR2DL1 chip; second Ab after first Ab 1-7 F9. For orientation: SPR reads the build-up and loss of mass on a sensor chip optically.
For assay [3] the target is unchanged. Nature of the assay: SPR competition, KIR2DL1 chip; competitor (second Ab) 1-4 F1.
For assay [4] the target is unchanged. Nature of the assay: SPR competition, KIR2DL1 chip; competitor (second Ab) DF200.
Assay [5] has the same target. Nature of the assay: SPR, KIR2DL1 chip; second Ab alone (field of first Ab 1-7 F9).
Assay [6] shares this target. Nature of the assay: SPR competition, KIR2DL1 chip; competitor (second Ab) 1-7 F9.
Assay [7] shares this target. Nature of the assay: SPR, KIR2DL1 chip; second Ab after first Ab EB6.
Assay [8] shares this target. Nature of the assay: SPR, KIR2DL1 chip; second Ab alone (field of first Ab 1-6 F1).
The target is the same in assay [9]. Nature of the assay: SPR competition, KIR2DL1 chip; competitor (second Ab) 1-6 F1.
Assay [10] shares this target. Nature of the assay: SPR competition, KIR2DL1 chip; competitor (second Ab) Pan2D.
Assay [11] has the same target. Nature of the assay: SPR, KIR2DL1 chip; second Ab alone (field of first Ab EB6).
Assay [12] has the same target. Nature of the assay: SPR, KIR2DL1 chip; second Ab after first Ab 1-6 F1.

Chain of KIR2DL1 recombinant protein (entire extracellular domain, produced in E. coli, immobilized on Biacore chip) (human) (P43626 22-245): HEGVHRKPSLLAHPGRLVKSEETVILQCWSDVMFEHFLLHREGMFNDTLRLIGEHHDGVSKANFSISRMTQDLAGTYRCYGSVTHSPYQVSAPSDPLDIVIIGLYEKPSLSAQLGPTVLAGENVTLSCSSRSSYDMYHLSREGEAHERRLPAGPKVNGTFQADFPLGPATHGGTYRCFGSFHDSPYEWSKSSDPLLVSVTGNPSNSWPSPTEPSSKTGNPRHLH

In the case of EB6 (IgG1 anti KIR2DL1) (antibody), the % inhibition of second antibody binding in [1] worked out at 57%; in assay [3], 48%; in [4], 60%; in assay [6], 65%; in [9], 23%; in assay [10], 40%. The results for the RU, second antibody with first antibody present in assay [2], in assay [7] and in assay [12] were 180 RU, 200 RU and 320 RU, respectively. Further, the results for the RU, direct binding of second antibody in assay [5], in [8] and in assay [11] were 460 RU, 260 RU and 460 RU, respectively.
